Numbered stars: 1 amine (or outer) side, 2 acyl side, 3 side chain; on linkers, the order of the positions; unused ones are H or OH. Bridge positions count the residues as written; N and C are the ends. Side chains are listed from the residue outwards. Ends that are not written are not given here. * marks the point of attachment. C20 diacid = O=C(O)CCCCCCCCCCCCCCCCCCC(=O)*; C16 diacid = O=C(O)CCCCCCCCCCCCCCC(=O)*; γGlu = O=C(O)[C@H](CCC(=O)[*:2])N[*:1]; C14 diacid = O=C(O)CCCCCCCCCCCCC(=O)*; AEEA = NCCOCCOCC(=O)O
T1: rat calcitonin receptor (rat, UniProt P32214 25-516)
T1 construct: whole, on cells; Membranes of transiently transfected BHK tk'ts 13 cells; also called rCTR; rat calcitonin (a) receptor
T1 sequence (looked up): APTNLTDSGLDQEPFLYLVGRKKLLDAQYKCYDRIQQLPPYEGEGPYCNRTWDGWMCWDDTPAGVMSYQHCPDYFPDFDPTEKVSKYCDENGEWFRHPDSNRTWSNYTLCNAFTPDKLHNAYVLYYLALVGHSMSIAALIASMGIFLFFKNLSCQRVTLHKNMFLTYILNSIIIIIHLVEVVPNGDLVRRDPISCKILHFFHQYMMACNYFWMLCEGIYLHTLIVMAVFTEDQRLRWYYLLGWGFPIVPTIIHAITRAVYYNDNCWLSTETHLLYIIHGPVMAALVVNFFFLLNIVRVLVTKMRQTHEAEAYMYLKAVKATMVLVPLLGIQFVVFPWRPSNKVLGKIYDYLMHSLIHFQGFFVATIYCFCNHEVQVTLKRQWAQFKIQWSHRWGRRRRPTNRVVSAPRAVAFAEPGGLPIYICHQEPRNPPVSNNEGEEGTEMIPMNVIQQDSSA

T2: human calcitonin receptor (human, UniProt P30988 25-474)
T2 construct: whole, on cells; Membranes of stably transfected cells; also called hCTR; hCT
T2 sequence (looked up): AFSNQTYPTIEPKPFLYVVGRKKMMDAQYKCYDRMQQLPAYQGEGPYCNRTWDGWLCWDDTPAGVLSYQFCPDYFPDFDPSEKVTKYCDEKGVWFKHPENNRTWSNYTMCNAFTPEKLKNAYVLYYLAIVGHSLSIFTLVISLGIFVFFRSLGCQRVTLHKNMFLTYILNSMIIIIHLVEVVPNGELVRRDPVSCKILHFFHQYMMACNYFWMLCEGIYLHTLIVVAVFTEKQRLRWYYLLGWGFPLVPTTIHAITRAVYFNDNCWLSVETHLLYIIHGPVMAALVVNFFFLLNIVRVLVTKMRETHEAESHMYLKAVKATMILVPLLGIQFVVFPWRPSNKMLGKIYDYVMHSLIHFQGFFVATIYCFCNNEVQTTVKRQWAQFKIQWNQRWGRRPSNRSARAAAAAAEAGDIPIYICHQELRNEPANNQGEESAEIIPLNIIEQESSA

T3: rat amylin receptor (rat calcitonin receptor + rat RAMP 3) (rat, UniProt P32214 25-516; Q9JJ73 23-147)
T3 construct: whole, on cells; Membranes of transiently transfected BHK tk'ts 13 cells; also called rAmylin-R; rat amylin 3(a) receptor
T3 sequence (looked up) 1: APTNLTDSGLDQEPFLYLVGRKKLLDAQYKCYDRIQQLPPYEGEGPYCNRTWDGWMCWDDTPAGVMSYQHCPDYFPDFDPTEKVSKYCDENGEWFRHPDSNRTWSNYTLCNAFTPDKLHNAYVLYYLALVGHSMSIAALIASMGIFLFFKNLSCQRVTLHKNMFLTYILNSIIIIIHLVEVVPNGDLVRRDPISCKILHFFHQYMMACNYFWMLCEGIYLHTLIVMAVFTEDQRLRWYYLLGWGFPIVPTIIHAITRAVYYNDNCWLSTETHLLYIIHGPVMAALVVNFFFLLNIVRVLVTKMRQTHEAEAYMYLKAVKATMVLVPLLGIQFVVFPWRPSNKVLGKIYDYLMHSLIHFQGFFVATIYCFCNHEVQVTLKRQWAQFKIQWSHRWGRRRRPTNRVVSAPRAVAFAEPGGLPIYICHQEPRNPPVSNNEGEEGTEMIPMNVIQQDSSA
T3 sequence (looked up) 2: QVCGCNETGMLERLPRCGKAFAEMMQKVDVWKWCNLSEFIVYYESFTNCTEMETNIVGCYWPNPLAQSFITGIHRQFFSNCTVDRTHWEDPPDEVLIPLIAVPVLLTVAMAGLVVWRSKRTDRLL


Tests used:
[1] = molecular target: T1, rat calcitonin receptor; assay: ratio of IC50 on rat calcitonin receptor to IC50 on rat amylin receptor (reference m40)
[2] = molecular target: T2, human calcitonin receptor; assay: ratio of IC50 on human calcitonin receptor to IC50 on human amylin receptor (reference m42), SPA competition
Protocol: The resulting pellet was resuspended, homogenized and centrifuged (20.000 rpm, 15 min) in a buffer containing 20 mM Na-HEPES and 0.1 mM EDTA (pH 7.4, buffer 2). The resulting pellet was resuspended in buffer 2 and protein concentration was measured (BCA protein Assay, Pierce). The homogenate was kept cold during the whole procedure. The membranes were kept at −80° C. until use. The assay was performed in a 384 well Optiplate (PerkinElmer) in a total volume of 40 ul. Membranes were mixed with SPA beads. Final concentration of membranes 35 ng/μL final and SPA beads was 0.05 mg/well. Test-compounds were dissolved in DMSO and further diluted in assay buffer (50 mM Hepes, pH 7.4, 1 mM CaCl2, 5 mM MgCl₂, 0.1% OA and 0.02% Tween20). […] The final mixture was incubated with shaking at 400 rpm for 120 min at 25° C. prior to centrifugation (1500 rpm, 10 min). Samples were analyzed on TopCounter™ (Packard). The IC₅₀ was calculated using (one site binding competition analysis) GraphPad Prism5 as a measure of receptor affinity.
Membranes were prepared in the following way; the cells were rinsed with PBS and incubated with Versene for approximately 5 min before harvesting. The cells were flushed with PBS and the cell-suspension was centrifuged for 5 min at 1000 rpm. Cells were homogenized (Ultrathurrax) in a buffer containing 20 mM Na-HEPES and 10 mM EDTA (pH 7.4) and centrifuged at 20.000 rpm for 15 min. The resulting pellet was resuspended, homogenized and centrifuged (20.000 rpm, 15 min) in a buffer containing 20 mM Na-HEPES and 0.1 mM EDTA (pH 7.4, buffer 2). The resulting pellet was resuspended in buffer 2 and protein concentration was measured (BCA protein Assay, Pierce). The homogenate was kept cold during the whole procedure. The membranes were kept at −80° C. until use. Assay was performed in a 384 well Optiplate (PerkinElmer) in a total volume of 40 ul. Membranes were mixed with SPA beads.

[3] = molecular target: T1, rat calcitonin receptor; assay: SPA competition with 125I-calcitonin on membranes of BHK tk'ts 13 cells with rat calcitonin receptor (Assay VIII)
[4] = molecular target: T3, rat amylin receptor (rat calcitonin …); assay: SPA competition with 125I-rat amylin on membranes of BHK tk'ts 13 cells with rat calcitonin receptor + rat RAMP3 (Assay VI)

Binder | Ratio rCT/rAmylin binding [1] | Ratio hCT/hAmylin binding [2] | IC50 [3] [nM] | IC50 [4] [nM]
K([γGlu-C14 diacid])CNTATCATQRLANFLRHSSPNFGAIPSSTNVGHNTY-NH2 (disulfide 2-7; N-terminus assumed; SMILES CC[C@H](C)[C@H](NC(=O)[C@H](C)NC(=O)CNC(=O)[C@H](Cc1ccccc1)NC(=O)[C@H](CC(N)=O)NC(=O)[C@@H]1CCCN1C(=O)[C@H](CO)NC(=O)[C@H](CO)NC(=O)[C@H](Cc1c[nH]cn1)NC(=O)[C@H](CCCNC(=N)N)NC(=O)[C@H](CC(C)C)NC(=O)[C@H](Cc1ccccc1)NC(=O)[C@H](CC(N)=O)NC(=O)[C@H](C)NC(=O)[C@H](CC(C)C)NC(=O)[C@H](CCCNC(=N)N)NC(=O)[C@H](CCC(N)=O)NC(=O)[C@@H](NC(=O)[C@H](C)NC(=O)[C@@H]1CSSC[C@H](NC(=O)[C@@H](N)CCCCNC(=O)CC[C@H](NC(=O)CCCCCCCCCCCCC(=O)O)C(=O)O)C(=O)N[C@@H](CC(N)=O)C(=O)N[C@@H]([C@@H](C)O)C(=O)N[C@@H](C)C(=O)N[C@@H]([C@@H](C)O)C(=O)N1)[C@@H](C)O)C(=O)N1CCC[C@H]1C(=O)N[C@@H](CO)C(=O)N[C@@H](CO)C(=O)N[C@H](C(=O)N[C@@H](CC(N)=O)C(=O)N[C@H](C(=O)NCC(=O)N[C@@H](Cc1c[nH]cn1)C(=O)N[C@@H](CC(N)=O)C(=O)N[C@H](C(=O)N[C@@H](Cc1ccc(O)cc1)C(N)=O)[C@@H](C)O)C(C)C)[C@@H](C)O, Synthetic acylated analogue of human amylin) [N^ε1-[(4S)-4-carboxy-4-(13-carboxytridecanoylamino)butanoyl]-[Arg17,Pro21,Pro27,His34]-h-amylin] | 280 | 23.5 | 707 | 2.52
K([γGlu-C16 diacid])CNTATCATQRLANFLRHSSPNFGAIPSSTNVGHNTY-NH2 (disulfide 2-7; N-terminus assumed; SMILES CC[C@H](C)[C@H](NC(=O)[C@H](C)NC(=O)CNC(=O)[C@H](Cc1ccccc1)NC(=O)[C@H](CC(N)=O)NC(=O)[C@@H]1CCCN1C(=O)[C@H](CO)NC(=O)[C@H](CO)NC(=O)[C@H](Cc1c[nH]cn1)NC(=O)[C@H](CCCNC(=N)N)NC(=O)[C@H](CC(C)C)NC(=O)[C@H](Cc1ccccc1)NC(=O)[C@H](CC(N)=O)NC(=O)[C@H](C)NC(=O)[C@H](CC(C)C)NC(=O)[C@H](CCCNC(=N)N)NC(=O)[C@H](CCC(N)=O)NC(=O)[C@@H](NC(=O)[C@H](C)NC(=O)[C@@H]1CSSC[C@H](NC(=O)[C@@H](N)CCCCNC(=O)CC[C@H](NC(=O)CCCCCCCCCCCCCCC(=O)O)C(=O)O)C(=O)N[C@@H](CC(N)=O)C(=O)N[C@@H]([C@@H](C)O)C(=O)N[C@@H](C)C(=O)N[C@@H]([C@@H](C)O)C(=O)N1)[C@@H](C)O)C(=O)N1CCC[C@H]1C(=O)N[C@@H](CO)C(=O)N[C@@H](CO)C(=O)N[C@H](C(=O)N[C@@H](CC(N)=O)C(=O)N[C@H](C(=O)NCC(=O)N[C@@H](Cc1c[nH]cn1)C(=O)N[C@@H](CC(N)=O)C(=O)N[C@H](C(=O)N[C@@H](Cc1ccc(O)cc1)C(N)=O)[C@@H](C)O)C(C)C)[C@@H](C)O, Synthetic acylated analogue of human amylin) [N^ε1-[(4S)-4-carboxy-4-(15-carboxypentadecanoylamino)butanoyl]-[Arg17,Pro21,Pro27,His34]-h-amylin] | 327 | 18.5 | 404 | 1.24

The next binders have a lower IC50 [3] than those just listed; values first:

Ratio rCT/rAmylin binding [1] | Ratio hCT/hAmylin binding [2] | IC50 [3] [nM] | IC50 [4] [nM] | Binder
118 | 79.6 | 62.2 | 0.529 | K([AEEA-AEEA-γGlu-C20 diacid])CNTATCATQRLANFLRHSSPNFGAIPSSTPVGSNTY-NH2 (disulfide 2-7; N-terminus assumed; SMILES CC[C@H](C)[C@H](NC(=O)[C@H](C)NC(=O)CNC(=O)[C@H](Cc1ccccc1)NC(=O)[C@H](CC(N)=O)NC(=O)[C@@H]1CCCN1C(=O)[C@H](CO)NC(=O)[C@H](CO)NC(=O)[C@H](Cc1c[nH]cn1)NC(=O)[C@H](CCCNC(=N)N)NC(=O)[C@H](CC(C)C)NC(=O)[C@H](Cc1ccccc1)NC(=O)[C@H](CC(N)=O)NC(=O)[C@H](C)NC(=O)[C@H](CC(C)C)NC(=O)[C@H](CCCNC(=N)N)NC(=O)[C@H](CCC(N)=O)NC(=O)[C@@H](NC(=O)[C@H](C)NC(=O)[C@@H]1CSSC[C@H](NC(=O)[C@@H](N)CCCCNC(=O)COCCOCCNC(=O)COCCOCCNC(=O)CC[C@H](NC(=O)CCCCCCCCCCCCCCCCCCC(=O)O)C(=O)O)C(=O)N[C@@H](CC(N)=O)C(=O)N[C@@H]([C@@H](C)O)C(=O)N[C@@H](C)C(=O)N[C@@H]([C@@H](C)O)C(=O)N1)[C@@H](C)O)C(=O)N1CCC[C@H]1C(=O)N[C@@H](CO)C(=O)N[C@@H](CO)C(=O)N[C@H](C(=O)N1CCC[C@H]1C(=O)N[C@H](C(=O)NCC(=O)N[C@@H](CO)C(=O)N[C@@H](CC(N)=O)C(=O)N[C@H](C(=O)N[C@@H](Cc1ccc(O)cc1)C(N)=O)[C@@H](C)O)C(C)C)[C@@H](C)O, Synthetic acylated analogue of human amylin; also called compound 96)
176 | 74.1 | 24.1 | 0.137 | K([AEEA-AEEA-γGlu-C20 diacid])CNTATCATQRLANFLRHSSPNFGAIPSSTNVGPNTY-NH2 (disulfide 2-7; N-terminus assumed; SMILES CC[C@H](C)[C@H](NC(=O)[C@H](C)NC(=O)CNC(=O)[C@H](Cc1ccccc1)NC(=O)[C@H](CC(N)=O)NC(=O)[C@@H]1CCCN1C(=O)[C@H](CO)NC(=O)[C@H](CO)NC(=O)[C@H](Cc1c[nH]cn1)NC(=O)[C@H](CCCNC(=N)N)NC(=O)[C@H](CC(C)C)NC(=O)[C@H](Cc1ccccc1)NC(=O)[C@H](CC(N)=O)NC(=O)[C@H](C)NC(=O)[C@H](CC(C)C)NC(=O)[C@H](CCCNC(=N)N)NC(=O)[C@H](CCC(N)=O)NC(=O)[C@@H](NC(=O)[C@H](C)NC(=O)[C@@H]1CSSC[C@H](NC(=O)[C@@H](N)CCCCNC(=O)COCCOCCNC(=O)COCCOCCNC(=O)CC[C@H](NC(=O)CCCCCCCCCCCCCCCCCCC(=O)O)C(=O)O)C(=O)N[C@@H](CC(N)=O)C(=O)N[C@@H]([C@@H](C)O)C(=O)N[C@@H](C)C(=O)N[C@@H]([C@@H](C)O)C(=O)N1)[C@@H](C)O)C(=O)N1CCC[C@H]1C(=O)N[C@@H](CO)C(=O)N[C@@H](CO)C(=O)N[C@H](C(=O)N[C@@H](CC(N)=O)C(=O)N[C@H](C(=O)NCC(=O)N1CCC[C@H]1C(=O)N[C@@H](CC(N)=O)C(=O)N[C@H](C(=O)N[C@@H](Cc1ccc(O)cc1)C(N)=O)[C@@H](C)O)C(C)C)[C@@H](C)O, Synthetic acylated analogue of human amylin; also called compound 98)
